Where a chain is given by its changes, count along the chain named. Values belong to the molecule of their own block, whether it stands above or below them.
Experiments:
Gαq = assay: eCFP/eYFP FRET in living cells, basal; conditions: sites S887
eYFP-PLCβ1 S887D = target: T1, eYFP-PLCβ1 S887D (UniProt P10687 1-1216, S887D); assay: FRET or BRET
T1 sequence (looked up): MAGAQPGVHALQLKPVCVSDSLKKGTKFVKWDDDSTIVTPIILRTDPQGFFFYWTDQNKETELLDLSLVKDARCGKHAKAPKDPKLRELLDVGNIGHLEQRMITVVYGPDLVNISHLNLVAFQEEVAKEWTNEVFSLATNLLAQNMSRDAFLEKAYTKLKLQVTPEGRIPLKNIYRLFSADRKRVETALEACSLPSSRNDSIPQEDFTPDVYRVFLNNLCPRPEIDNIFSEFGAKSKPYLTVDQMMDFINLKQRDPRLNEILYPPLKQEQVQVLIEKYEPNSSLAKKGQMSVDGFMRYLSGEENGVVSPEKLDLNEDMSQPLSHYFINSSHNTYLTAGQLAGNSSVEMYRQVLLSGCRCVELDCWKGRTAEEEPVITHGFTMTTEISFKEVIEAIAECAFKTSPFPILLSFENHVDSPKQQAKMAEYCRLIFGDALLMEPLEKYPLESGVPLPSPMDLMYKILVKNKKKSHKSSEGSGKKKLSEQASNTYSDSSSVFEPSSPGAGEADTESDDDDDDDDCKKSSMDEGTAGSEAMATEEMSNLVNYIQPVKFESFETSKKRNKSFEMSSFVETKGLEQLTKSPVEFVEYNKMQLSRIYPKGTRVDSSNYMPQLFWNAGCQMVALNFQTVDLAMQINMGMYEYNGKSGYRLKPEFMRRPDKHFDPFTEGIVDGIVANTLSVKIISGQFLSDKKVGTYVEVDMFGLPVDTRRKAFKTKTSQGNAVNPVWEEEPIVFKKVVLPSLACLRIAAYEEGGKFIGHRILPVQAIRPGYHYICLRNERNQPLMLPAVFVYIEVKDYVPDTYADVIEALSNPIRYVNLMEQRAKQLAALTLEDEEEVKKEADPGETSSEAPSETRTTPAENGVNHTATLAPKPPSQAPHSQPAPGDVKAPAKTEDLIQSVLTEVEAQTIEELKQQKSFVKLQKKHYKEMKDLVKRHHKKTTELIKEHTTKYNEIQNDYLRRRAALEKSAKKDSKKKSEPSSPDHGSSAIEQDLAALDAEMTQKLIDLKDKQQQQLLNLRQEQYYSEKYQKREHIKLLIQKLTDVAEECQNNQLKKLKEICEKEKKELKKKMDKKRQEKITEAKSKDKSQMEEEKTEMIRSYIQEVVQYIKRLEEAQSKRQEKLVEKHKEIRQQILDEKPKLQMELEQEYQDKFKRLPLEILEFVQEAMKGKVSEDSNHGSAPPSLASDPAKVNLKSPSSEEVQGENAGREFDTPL

eYFP-PLCβ1 S887A = target: T2, eYFP-PLCβ1 S887A (UniProt P10687 1-1216, S887A); assay: FRET or BRET
T2 sequence (looked up): T1 sequence (looked up) with D887A

[1] = target: T3, eYFP-PLCβ1 (wild type phospholipase Cβ1) (UniProt P10687 1-1216); assay: FRET or BRET
T3 sequence (looked up): T1 sequence (looked up) with D887S

other: FRET efficiency (Gαq; reference: wild type): same; reference 38±4
Molecule: PLCβ1 S887A

other: FRET efficiency (Gαq; reference: S887A): same; reference 30±6
other: FRET efficiency (Gαq; reference: wild type): same; reference 38±4
Molecule: PLCβ1 S887D

FRET efficiency (eYFP-PLCβ1 S887D): 39 ± 3%
FRET efficiency (eYFP-PLCβ1 S887A): 30 ± 6%
FRET efficiency [1]: 38 ± 4%
B1: eCFP-Gαq (natural protein, UniProt P21279 1-359, looked up)
chain: MTLESIMACCLSEEAKEARRINDEIERQLRRDKRDARRELKLLLLGTGESGKSTFIKQMRIIHGSGYSDEDKRGFTKLVYQNIFTAMQAMIRAMDTLKIPYKYEHNKAHAQLVREVDVEKVSAFENPYVDAIKSLWNDPGIQECYDRRREYQLSDSTKYYLNDLDRVADPSYLPTQQDVLRVRVPTTGIIEYPFDLQSVIFRMVDVGGQRSERRKWIHCFENVTSIMFLVALSEYDQVLVESDNENRMEESKALFRTIITYPWFQNSSVILFLNKKDLLEEKIMYSHLVDYFPEYDGPQRDAQAAREFILKMFVDLNPDSDKIIYSHFTCATDTENIRFVFAAVKDTILQLNLKEYNLV
